Test results as given in patent US9005963B2, “Amino acid sequences directed against cellular receptors for viruses and bacteria” (Ablynx N.V., priority 2008, dated 2015).
Marks after values point to notes of the source that are not given here.

Tests used:
[1] = biological target: T1, CXCR4 (Homo sapiens, UniProt P61073); assay: Binding of 125I-labeled Nanobodies to membranes from HEK293T cells expressing CXCR4 compared to CXCR3; design: expressed in transfected cells; host or cells: HEK293T, transient (pcDNA3.1-CXCR4)
Experimental: (§1) Membranes from HEK293T cells transiently expressing CXCR3 or CXCR4 were prepared 48 h after transfection as follows. Cells were washed and scraped from the cell culture dishes with ice-cold PBS containing 1 mm EDTA. The scraped cells were pelleted at 1500×g for 10 min at 4° C. The pellet was washed and then resuspended in ice-cold membrane buffer (15 mM Tris, pH 7.5, 1 mM EGTA, 0.3 mM EDTA, and 2 mM MgCl2). The cell suspension was homogenized by 10 strokes at 1200 rpm using a Teflon-glass homogenizer and rotor and further subjected to three freeze-thaw cycles using liquid nitrogen. Membranes were separated by centrifugation at 40,000 g for 25 min at 4° C. The membrane pellet was washed and resuspended in ice-cold Tris-sucrose buffer (20 mM Tris, pH 7.4, and 250 mM sucrose) and frozen in liquid nitrogen. The total protein was determined using a Bradford assay (Bio-Rad).
Periplasmas (1:10) or ligands were pre-incubated with membranes in binding buffer (50 mM HEPES (pH 7.4), 1 mM CaCl2, 5 mM MgCl2, 100 mM NaCl, 0.5% bovine serum albumin) supplemented with 0.5% BSA for 1 h at 22° C. before the addition of [^125I]-CXCL12 (40 pM) or [^125I]-238D2 (3 nM) or [^125I]-238D4 (3 nM) for additional 2 h at 22° C. […] Plates were counted by liquid scintillation.

[2] = biological target: T1, CXCR4; assay: Competition binding with [125I]-CXCL12 on membranes from HEK293T cells transiently expressing CXCR4; design: expressed in transfected cells; host or cells: HEK293T, transient (pcDNA3.1-CXCR4); conditions: for pKi ([125I]-CXCL12): HEK293T-CXCR4 membranes; for Rel. potency, relative to monovalent 238D2: [125I]-CXCL12 displacement affinity, fold; for Displacem. (%) of [125I]-CXCL12: maximal displacement, a: no significant displacement at 0.5 μM, b/c(B-6): maximum not reached, displacement at 0.5 μM
Experimental: as §1
Membranes were then harvested over polyethylenimine (0.5%)-treated Whatman GF/C filter plates and washed three times with ice cold binding buffer containing 500 mM NaCl. Plates were counted by liquid scintillation. […]

T1 sequence (P61073 whole entry): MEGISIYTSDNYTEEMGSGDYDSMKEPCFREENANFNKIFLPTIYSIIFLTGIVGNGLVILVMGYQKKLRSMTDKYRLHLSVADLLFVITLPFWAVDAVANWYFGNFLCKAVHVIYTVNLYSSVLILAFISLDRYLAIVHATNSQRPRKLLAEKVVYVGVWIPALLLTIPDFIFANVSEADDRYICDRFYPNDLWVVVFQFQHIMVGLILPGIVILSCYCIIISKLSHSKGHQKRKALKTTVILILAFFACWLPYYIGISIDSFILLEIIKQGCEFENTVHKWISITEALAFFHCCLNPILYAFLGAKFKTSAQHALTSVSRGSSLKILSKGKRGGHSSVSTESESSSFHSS

binding to CXCR4 membranes compared to CXCR3 membranes [1]	pKi ([125I]-CXCL12) [2]	Rel. potency, relative to monovalent 238D2 [2]	Displacem. (%) of [125I]-CXCL12 [2]	Molecule
selectively bound				[^125I]-238D2: 125I-labeled NANOBODY 238D2 for competition binding studies (protein) VHH: EVQLVESGGGLVQTGGSLRLSCAASGFTFSSYAMSWVRQAPGKGLEWVSGIKSSGDSTRYAGSVKGRFTISRDNAKNMLYLQMYSLKPEDTAVYYCAKSRVSRTGLYTYDNRGQGTQVTVSS
	<7.00	<0.1^a	43 ± 11^c %	238D2-20GS-238B10: bivalent Nanobody, SEQ ID NO: 266 (protein, Nanobodies) EVQLVESGGGLVQTGGSLRLSCAASGFTFSSYAMSWVRQAPGKGLEWVSGIKSSGDSTRYAGSVKGRFTISRDNAKNMLYLQMYSLKPEDTAVYYCAKSRVSRTGLYTYDNRGQGTQVTVSSGGGGSGGGGSGGGGSGGGGSEVQLVESGGGFVQAGGSLRLSCETSGRPLLGYTIAWFRQVPGKEREFVAYHRWSDGANLYADSVKGRFTISGHNAKNTVSLQMNSLKPEDTAVYYCAAARMTTSNDKEYLYWGQGTQVTVSS
selectively bound				[^125I]-238D4: 125I-labeled NANOBODY 238D4 for competition binding studies (protein) VHH: EVQLMESGGGLVQAGGSLRLSCAASGRTFNNYAMGWFRRAPGKEREFVAAITRSGVRSGVSAIYGDSVKDRFTISRDNAKNTLYLQMNSLKPEDTAVYTCAASAIGSGALRRFEYDYSGQGTQVTVSS
	7.35 ± 0.07	0.18^a	110 ± 2%	238D2-20GS-238C5: bivalent Nanobody, SEQ ID NO: 265 (protein, Nanobodies) EVQLVESGGGLVQTGGSLRLSCAASGFTFSSYAMSWVRQAPGKGLEWVSGIKSSGDSTRYAGSVKGRFTISRDNAKNMLYLQMYSLKPEDTAVYYCAKSRVSRTGLYTYDNRGQGTQVTVSSGGGGSGGGGSGGGGSGGGGSEVQLMESGGGLVQAGGSLRLACAASGFTFEDYAIGWFRKAPGKEREGVSCISGSDGSTTYADSVKGRFTISTDNAKNTVYLEMNSLKPEDTAVYYCAQQYGVGGRVVCPGPYEYDVWGQGTQVTVSS
